# Test results from patent US20180086804A1 (COMMISSARIAT A L ENERGIE ATOMIQUE ET AUX ENERGIES …, published 2018).
# No end group written: not given here.
# Molecular target: T1, HLA-DR11 (HLA-DRB1*11:01) (human)
# T1 construct: mature; purified from homozygous EBV-transformed lymphoblastoid cells with antibody L243
# Experiment: competition ELISA vs biotin-HA 306-318;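 further: HLA and competitor incubated 24 to 72 h, maximal signal taken from wells lacking competitor, background from wells lacking HLA molecule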
row,Binder,relative affinity
1,RPLPLHFLRRASKIG-NH2 [CCNB1 299-313],0.1

# Molecular target: T2, HLA-DR1 (HLA-DRB1*01:01) (human)
# T2 construct: mature; class II HLA molecule purified from homozygous EBV-transformed lymphoblastoid cells with antibody L243
# Experiment: competition ELISA vs biotin-HA 306-318;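 further: HLA and competitor incubated 24 to 72 h, maximal signal taken from wells lacking competitor, background from wells lacking HLA molecule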
row,Binder,relative affinity
1,RPLPLHFLRRASKIG-NH2 [CCNB1 299-313],63

# Molecular target: T3, HLA-DR4 (HLA-DRB1*04:01) (human)
# T3 construct: mature; purified from homozygous EBV-transformed lymphoblastoid cells with antibody L243
# Experiment: competition ELISA vs biotin-HA 306-318;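 further: HLA and competitor incubated 24 to 72 h, maximal signal taken from wells lacking competitor, background from wells lacking HLA molecule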
row,Binder,relative affinity
1,RPLPLHFLRRASKIG-NH2 [CCNB1 299-313],624

# Molecular target: T4, HLA-DRB5 (HLA-DRB5*01:01) (human)
# T4 construct: mature; purified from homozygous EBV-transformed lymphoblastoid cells with antibody L243
# Experiment: competition ELISA vs biotin-HA 306-318;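 further: HLA and competitor incubated 24 to 72 h, maximal signal taken from wells lacking competitor, background from wells lacking HLA molecule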
row,Binder,relative affinity
1,RPLPLHFLRRASKIG-NH2 [CCNB1 299-313],26

# Molecular target: T5, HLA-DRB3 (HLA-DRB3*01:01) (human)
# T5 construct: mature; purified from homozygous EBV-transformed lymphoblastoid cells with antibody L243
# Experiment: competition ELISA vs biotin-LOL 191-210
row,Binder,relative affinity
1,EKLSPEPILVDTASP-NH2 [CCNB1 113-127],151
2,QAFSDVILAVNDVDA-NH2 [CCNB1 144-158],18
3,PNLCSEYVKDIYAYL-NH2 [CCNB1 164-178],53
4,REVTGNMRAILIDWL-NH2 [CCNB1 195-209],20
5,PEIGDFAFVTDNTYT-NH2 [CCNB1 264-278],19
6,FAFVTDNTYTKHQIR-NH2 [CCNB1 269-283],34
7,LSYTEESLLPVMQHL-NH2 [CCNB1 369-383],72

# Molecular target: T1, HLA-DR11 (HLA-DRB1*11:01)
# Experiment: competition ELISA vs biotin-HA 306-318
# Remark: another data set of the same source
row,Binder,relative affinity
1,REVTGNMRAILIDWL-NH2 [CCNB1 195-209],1180
2,PEIGDFAFVTDNTYT-NH2 [CCNB1 264-278],1670
3,FAFVTDNTYTKHQIR-NH2 [CCNB1 269-283],2190
4,LSYTEESLLPVMQHL-NH2 [CCNB1 369-383],45

# Molecular target: T2, HLA-DR1 (HLA-DRB1*01:01)
# Experiment: competition ELISA vs biotin-HA 306-318
# Remark: another data set of the same source
row,Binder,relative affinity
1,EKLSPEPILVDTASP-NH2 [CCNB1 113-127],6000
2,QAFSDVILAVNDVDA-NH2 [CCNB1 144-158],1730
3,PNLCSEYVKDIYAYL-NH2 [CCNB1 164-178],2830
4,REVTGNMRAILIDWL-NH2 [CCNB1 195-209],55
5,PEIGDFAFVTDNTYT-NH2 [CCNB1 264-278],7000
6,FAFVTDNTYTKHQIR-NH2 [CCNB1 269-283],1340
7,LSYTEESLLPVMQHL-NH2 [CCNB1 369-383],212

# Molecular target: T3, HLA-DR4 (HLA-DRB1*04:01)
# Experiment: competition ELISA vs biotin-HA 306-318
# Remark: another data set of the same source
row,Binder,relative affinity
1,EKLSPEPILVDTASP-NH2 [CCNB1 113-127],55
2,QAFSDVILAVNDVDA-NH2 [CCNB1 144-158],12
3,PNLCSEYVKDIYAYL-NH2 [CCNB1 164-178],527
4,REVTGNMRAILIDWL-NH2 [CCNB1 195-209],260
5,PEIGDFAFVTDNTYT-NH2 [CCNB1 264-278],2
6,FAFVTDNTYTKHQIR-NH2 [CCNB1 269-283],0.4
7,LSYTEESLLPVMQHL-NH2 [CCNB1 369-383],58

# Molecular target: T4, HLA-DRB5 (HLA-DRB5*01:01)
# Experiment: competition ELISA vs biotin-HA 306-318
# Remark: another data set of the same source
row,Binder,relative affinity
1,PNLCSEYVKDIYAYL-NH2 [CCNB1 164-178],500
2,REVTGNMRAILIDWL-NH2 [CCNB1 195-209],1410
3,PEIGDFAFVTDNTYT-NH2 [CCNB1 264-278],61
4,FAFVTDNTYTKHQIR-NH2 [CCNB1 269-283],42
5,LSYTEESLLPVMQHL-NH2 [CCNB1 369-383],1380

# Molecular target: T6, HLA-DR3 (HLA-DRB1*03:01) (human)
# T6 construct: mature; purified from homozygous EBV-transformed lymphoblastoid cells with antibody L243
# Experiment: competition ELISA vs biotin-MT 2-16
row,Binder,relative affinity
1,EKLSPEPILVDTASP-NH2 [CCNB1 113-127],6
2,QAFSDVILAVNDVDA-NH2 [CCNB1 144-158],8
3,REVTGNMRAILIDWL-NH2 [CCNB1 195-209],1
4,PEIGDFAFVTDNTYT-NH2 [CCNB1 264-278],85
5,FAFVTDNTYTKHQIR-NH2 [CCNB1 269-283],0.1

# Molecular target: T7, HLA-DRB4 (HLA-DRB4*01:01) (human)
# T7 construct: mature; purified from homozygous EBV-transformed lymphoblastoid cells with antibody L243
# Experiment: competition ELISA vs biotin-E2/E168
row,Binder,relative affinity
1,EKLSPEPILVDTASP-NH2 [CCNB1 113-127],231
2,PNLCSEYVKDIYAYL-NH2 [CCNB1 164-178],40
3,REVTGNMRAILIDWL-NH2 [CCNB1 195-209],23

# Molecular target: T8, HLA-DR15 (HLA-DRB1*15:01) (human)
# T8 construct: mature; purified from homozygous EBV-transformed lymphoblastoid cells with antibody L243
# Experiment: competition ELISA vs biotin-A3 152-166
row,Binder,relative affinity
1,RPLPLHFLRRASKIG-NH2 [CCNB1 299-313],200

# Molecular target: T9, HLA-DR7 (HLA-DRB1*07:01) (human)
# T9 construct: mature; purified from homozygous EBV-transformed lymphoblastoid cells with antibody L243
# Experiment: competition ELISA vs biotin-YKL
row,Binder,relative affinity
1,RPLPLHFLRRASKIG-NH2 [CCNB1 299-313],35

# Molecular target: T8, HLA-DR15 (HLA-DRB1*15:01)
# Experiment: competition ELISA vs biotin-A3 152-166
# Remark: another data set of the same source
row,Binder,relative affinity
1,QAFSDVILAVNDVDA-NH2 [CCNB1 144-158],46
2,PNLCSEYVKDIYAYL-NH2 [CCNB1 164-178],28
3,REVTGNMRAILIDWL-NH2 [CCNB1 195-209],30
4,PEIGDFAFVTDNTYT-NH2 [CCNB1 264-278],300
5,FAFVTDNTYTKHQIR-NH2 [CCNB1 269-283],17
6,LSYTEESLLPVMQHL-NH2 [CCNB1 369-383],350

# Molecular target: T10, HLA-DR13 (HLA-DRB1*13:01) (human)
# T10 construct: mature; purified from homozygous EBV-transformed lymphoblastoid cells with antibody L243
# Experiment: competition ELISA vs biotin-B1 21-36
row,Binder,relative affinity
1,REVTGNMRAILIDWL-NH2 [CCNB1 195-209],45

# Molecular target: T9, HLA-DR7 (HLA-DRB1*07:01)
# Experiment: competition ELISA vs biotin-YKL
# Remark: another data set of the same source
row,Binder,relative affinity
1,PNLCSEYVKDIYAYL-NH2 [CCNB1 164-178],73
2,PEIGDFAFVTDNTYT-NH2 [CCNB1 264-278],86
3,FAFVTDNTYTKHQIR-NH2 [CCNB1 269-283],577
4,LSYTEESLLPVMQHL-NH2 [CCNB1 369-383],91

# Molecular target: T11, HLA-DP401 (HLA-DPB1*04:01) (human, UniProt P20036 29-222)
# T11 construct: mature; purified from homozygous EBV-transformed lymphoblastoid cells with antibody B7/21
# Experiment: competition ELISA vs biotin-Oxy 271-287
row,Binder,relative affinity
1,EKLSPEPILVDTASP-NH2 [CCNB1 113-127],72
2,QAFSDVILAVNDVDA-NH2 [CCNB1 144-158],51
3,PNLCSEYVKDIYAYL-NH2 [CCNB1 164-178],274
4,REVTGNMRAILIDWL-NH2 [CCNB1 195-209],725
5,LSYTEESLLPVMQHL-NH2 [CCNB1 369-383],4

# Molecular target: T12, HLA-DP402 (HLA-DPB1*04:02) (human, UniProt P20036 29-222)
# T12 construct: mature; purified from homozygous EBV-transformed lymphoblastoid cells with antibody B7/21
# Experiment: competition ELISA vs biotin-Oxy 271-287
row,Binder,relative affinity
1,EKLSPEPILVDTASP-NH2 [CCNB1 113-127],71
2,PNLCSEYVKDIYAYL-NH2 [CCNB1 164-178],625
3,REVTGNMRAILIDWL-NH2 [CCNB1 195-209],791
4,LSYTEESLLPVMQHL-NH2 [CCNB1 369-383],1

# Molecular target: T10, HLA-DR13 (HLA-DRB1*13:01)
# Experiment: competition ELISA vs biotin-B1 21-36
# Remark: another data set of the same source
row,Binder,relative affinity
1,RPLPLHFLRRASKIG-NH2 [CCNB1 299-313],0.2

# Molecular target: T7, HLA-DRB4 (HLA-DRB4*01:01)
# Experiment: competition ELISA vs biotin-E2/E168
# Remark: another data set of the same source
row,Binder,relative affinity
1,RPLPLHFLRRASKIG-NH2 [CCNB1 299-313],13
